Values quoted from earlier work as cited in patent publication US20050119762A1, “Hydrogel providing cell-specific ingrowth” (priority 2003, published 2005).

Tests used:
MMP-2 [1] = biological target: T1, MMP-2 (Homo sapiens, UniProt P08253)
T1 sequence (P08253 110-660): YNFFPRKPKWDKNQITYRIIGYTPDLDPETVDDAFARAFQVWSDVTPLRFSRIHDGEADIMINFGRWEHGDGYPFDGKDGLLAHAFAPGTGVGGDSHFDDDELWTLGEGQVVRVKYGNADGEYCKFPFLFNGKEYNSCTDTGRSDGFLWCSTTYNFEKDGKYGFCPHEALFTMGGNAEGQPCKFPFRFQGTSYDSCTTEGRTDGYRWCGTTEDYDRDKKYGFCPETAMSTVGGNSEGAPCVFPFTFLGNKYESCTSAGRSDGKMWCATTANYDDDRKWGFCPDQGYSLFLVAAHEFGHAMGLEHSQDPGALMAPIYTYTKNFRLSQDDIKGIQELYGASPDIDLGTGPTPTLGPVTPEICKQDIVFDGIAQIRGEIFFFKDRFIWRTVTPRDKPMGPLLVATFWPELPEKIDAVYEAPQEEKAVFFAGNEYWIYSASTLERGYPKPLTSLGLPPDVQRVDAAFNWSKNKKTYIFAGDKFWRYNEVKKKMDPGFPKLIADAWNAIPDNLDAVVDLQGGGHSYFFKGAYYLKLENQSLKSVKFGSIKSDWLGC

MMP-9 [2] = biological target: T2, MMP-9 (Homo sapiens, UniProt P14780); conditions: phage clones selected by MMP-9; for % Hydrolysis 1: experiment 1; for % Hydrolysis 2: experiment 2
T2 construct: a recombinant form of the catalytic domain of MMP-9 expressed in HEK 293 cells; host or cells: HEK 293 cells

MMP-9 [3] = biological target: T2, MMP-9; conditions: peptides based on phage clones
MMP-2 [4] = biological target: T1, MMP-2; conditions: synthesized peptides, reciprocal plots
MMP-2 [5] = biological target: T1, MMP-2; conditions: phage substrate clones hydrolysed by activated MMP-2; for % Hydrolysis exp 1: experiment 1; for % Hydrolysis exp 2: experiment 2

T2 sequence (P14780 107-444 limits assumed): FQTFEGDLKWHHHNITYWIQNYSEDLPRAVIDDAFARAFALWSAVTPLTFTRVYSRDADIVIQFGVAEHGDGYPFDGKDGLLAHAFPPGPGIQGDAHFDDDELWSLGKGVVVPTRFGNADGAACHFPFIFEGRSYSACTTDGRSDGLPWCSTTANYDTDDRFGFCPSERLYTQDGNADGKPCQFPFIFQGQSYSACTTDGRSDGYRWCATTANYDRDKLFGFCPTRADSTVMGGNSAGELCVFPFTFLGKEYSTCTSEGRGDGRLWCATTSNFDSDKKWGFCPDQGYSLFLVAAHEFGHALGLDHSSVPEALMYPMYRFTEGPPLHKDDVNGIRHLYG

Substance	% Hydrolysis 1 (MMP-9 [2]) [%]	% Hydrolysis 2 (MMP-9 [2]) [%]	MMP-9 kcat (MMP-9 [3]) [S^−1]	MMP-2 kcat (MMP-2 [4]) [s⁻¹]	% Hydrolysis exp 1 (MMP-2 [5]) [%]	% Hydrolysis exp 2 (MMP-2 [5]) [%]	further results
GCRDSGESLAYYTADRCG	–	–	–	–	–	–	hydrolysis by MMP-2 (MMP-2 [1]): sensitive to hydrolysis
SG ↓ LKALMITA (SGLKALMITA; peptide substrate based on phage clones) [Peptide A7]	79.8	76	30	–	–	–	–
SGAKPRA ↓ LTA (SGAKPRALTA; peptide substrate based on phage clones) [Peptide A3]	–	–	–	400	–	–	–
SGANISD ↓ LTA (SGANISDLTA; peptide substrate based on phage clones) [Peptide B37]	–	–	–	353	97	95	–
SGAPSW ↓ LLTA (SGAPSWLLTA; peptide substrate based on phage clones) [Peptide A13P]	–	–	–	204	–	–	–
SGAVRW ↓ LLTA (SGAVRWLLTA; peptide substrate based on phage clones) [Peptide A13R]	–	–	–	28	–	–	–
SGAVSW ↓ LLTA (SGAVSWLLTA; peptide sequence based on phage clones) [Peptide A13]	78.9	72	–	105	100	93	–
SGESLAY ↓ YTA (SGESLAYYTA; peptide substrate based on phage clones) [Peptide B74]	–	–	–	622	81	90	–
SGESLRY ↓ YTA (SGESLRYYTA; peptide substrate based on phage clones) [Peptide B74R]	–	–	–	61	–	–	–
SGESPAY ↓ YTA (SGESPAYYTA; peptide substrate based on phage clones) [Peptide B74P]	–	–	–	264	–	–	–
SGFGSRY ↓ LTA (SGFGSRYLTA; peptide substrate based on phage clones) [Peptide A19]	45	50	11	–	–	–	–
SGHMHAA ↓ LTA (SGHMHAALTA; peptide substrate based on phage clones) [Peptide A21A]	–	–	–	601	–	–	–
SGHMHKA ↓ LTA (SGHMHKALTA; peptide substrate based on phage clones) [Peptide A21]	–	–	–	124	30	49	–
SGKGPRQ ↓ ITA (SGKGPRQITA; peptide substrate based on phage clones) [Peptide C15]	100	98	703	–	–	–	–
SGKIPRR ↓ LTA (SGKIPRRLTA; peptide substrate based on phage clones) [Peptide A11m1]	–	–	224	–	–	–	–
SGKIPRT ↓ ATA (SGKIPRTATA; peptide substrate based on phage clones) [Peptide A11m2]	–	–	9.4	–	–	–	–
SGKIPRT ↓ LTA (SGKIPRTLTA; peptide substrate based on phage clones) [Peptide A11]	100	100	86.4	–	–	–	–
SGLRLAA ↓ ITA (SGLRLAAITA; peptide substrates based on phage clones) [Peptide B49]	–	–	–	510	100	100	–
SGLRPAK ↓ STA (SGLRPAKSTA; peptide substrate based on phage clones) [Peptide A18]	28.9	30	78	–	–	–	–
SGNRYSS ↓ LTA (SGNRYSSLTA; peptide substrate based on phage clones) [Peptide A34]	–	–	–	202	100	100	–
SGPLF ↓ YSVTA (SGPLFYSVTA; peptide substrate based on phage clones) [Peptide A10]	100	100	20	–	36	40	–
SGPRA ↓ VSTTA (SGPRAVSTTA; peptide substrate based on phage clones) [Peptide A6]	100	99	178	–	30	44	–
SGQPHY ↓ LTTA (SGQPHYLTTA; peptide substrate based on phage clones) [Peptide B1]	79.6	85	9	–	–	–	–
SGRR ↓ LIHHTA (SGRRLIHHTA; peptide substrates based on phage clones) [Peptide C11]	94.9	74	–	–	–	–	–
SGRR ↓ LLSRTA (SGRRLLSRTA; peptide substrates based on phage clones) [Peptide A16]	20.2	11	–	–	–	–	–
SGRSLRR ↓ LTA (SGRSLRRLTA; peptide substrate based on phage clones) [Peptide C9R]	–	–	–	302	–	–	–
SGRSLSR ↓ LTA (SGRSLSRLTA; peptide substrate based on phage clones) [Peptide C9]	–	–	–	740	100	100	–
